Laboratory results taken from the nanobody polyreactivity screen of Harvey et al. (2022).

Experiment: yeast display, Sf9 membrane polyspecificity reagent, FACS + sequencing; frameworks hold sequencing errors
In short: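 Nanobodies came from a synthetic yeast display library in Saccharomyces cerevisiae BJ5465, induced with galactose for 36–48 hours and stained for 1 hour at 4 °C with 10% biotinylated, detergent-solubilized Sf9 membrane reagent. Cells were enriched on streptavidin microbeads and then FACS-sorted, with low and high (top ~1%) gates set on anti-HA fluorescence for expression and streptavidin fluorescence for reagent binding. Each polyreactivity label reflects the gate a clone came from. Genes were amplified by colony PCR, sequenced by MiSeq 2 × 250 and filtered by CDR length.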

Row | Sequence | polyreactivity (PSR sort gate)
1 | QVQLVESGGALVQAGGSLRLSCAASGSIFSRYTMGWYRQAPGKERELVAAIPSSGGRTYYADSVKGRFTNSRDNAKNTVYLQMNSLKPEDTAVYYCNAGGAYEYDYWGQGTQVTVSS | high polyreactivity
2 | QVQLVESGGGLVQAGGSLRLSCAASGSTFAGNAMGWYRQAPGKERELFAAITFSGGRTDYADSVKGRFTISRDNAKNTVYLQMNSLKPEDTAVYYCAAPADVTVHYLNYYWGQGTQVTVSS | low polyreactivity
3 | QVQLVESGGGLVQAGGSLPLSCAASGSIFDKYTMGWYRQAPGKERELVAAISRDSGSTYYADSVKGRFTISRDNAKNTVYLQMNSLKPEDTAVYYCAARLGYYGYDYWGQGTQVTVSS | low polyreactivity
4 | QVQLVESGGGLVQAGGSLRISCAASGRTFSSYAMGWYRQAPGKERELVARISSSGGRTSYADSVKGRFTISRDNAKNTVYLQMNSLKPEDTAVYYCATEWSDRNDYWGQGTQVTVSS | high polyreactivity
5 | QDQLVESGGGLVQAGGSLRLICAASGITFFGYVMGWYRQAPGKERELVAAINSRGGNTYYADSVKGRFTSSRDNAKNTVYLQMNSLKPEDTAVYYCAASNGYQAVTYDYWGQGTQVTVSS | high polyreactivity
6 | QVQLVESGGGLVQAGGSLRLSCAASGITFTGYAMGWSRQAPGKERELVAAISKRGARTYYADSVKGRFTNSRDNAKNTVYIQMNSLKPEDTAVYYCAADSTAQDIAGLYYWGQGTQVTVSS | high polyreactivity
7 | QVQLVESGGGLVQAGGRLRLSSAASGFTLVLNAMGWYIPAPGKERELVAAIRRSAGSTYYADSVKGRFTISRDNAKNTVYLQMNRLKPEDTAVYYCAAGFLWAKYAYGHWGQATQVTVSS | low polyreactivity
8 | QVQLVESGGGLVQAGGSLRLSCAASGSTILKYAMGWYRQAPGKERELVAAITSDGTSYADSVKGRFTISRDNAKNTVYLQMNSLKPEDTAVYYCAIDYRHPTFDYWGQGTQVTVSS | low polyreactivity
9 | QVQLVESGVGLVQAGGSLRLSCAASGYIFFGNAMGWYRQAPGKERELVAAIRWRGTSTYYADSVKGRFTISRDNAKNTVYLQMNSLKPEDTAVYYCAADVVRSNFYGTFLYDYDYWGQGTQVTVSS | low polyreactivity
10 | QVQLVESGGGLVQAGGSLRLSCAASGSIFVYNTMAWYRPAPVKERELVAAISSSGGSTYYADSVKGRFTISRDNAKNTVYLQMNSLKPEDTAVYYCAKGPLYSLFFQLDAPYRYGYWGQGTQVTVSS | low polyreactivity
11 | QVQLVESGGGLVQAGGSLRLSCAASGFTFRYYAMGWYRQAPGKERELVAAISRSGGSTYYADSVKGRFTISRDNAKNTVYLQMNSLKPEDTAVYYCAARSHGWTPHGYDYWGQGTQVTVSS | high polyreactivity
12 | QVQLVESGGGLVQAGGSLRLSCAASGRIFGRYAMGWYRQATGKERELVAAITSGGRTSYADSVKGRFTISRDNAKNTVYLQMNSLKPEDTAVYYCNVVSRNSIRFDYWGQGTQVTVSS | high polyreactivity
13 | QVQLVESGGGLFQAGGSLRLSSAASGRIIRRNAMGWYRQAPGKEWDLDAAITSSGGNTYYADSVKGRFTISRDNAKNTVYLQMNSLKPEDSAVYYCATYPGNWDLDYWGQGTQVTVSS | high polyreactivity
14 | QVQLVESGGGLVQAGGSLRLSCAASGNTFSPYAMGWYRQAPGKERELVAAITFRGGSTYYADSVKGRFTISRDNAKNTVYLQMNSLKPEDTAVYYCNAERGGWSGYFGYDYWGQGTQVTVSS | low polyreactivity
15 | QVQLVESGGGLVQAGCSLRLTCAASGSTFKKYAKGWYRQAPGKERDFVAAISRGGRTYYAYSVKGRFTISRDNAKNTVYLQMNSLKPEDTAVYYCAAETFGYQEVYFWGQGTQVTVSS | high polyreactivity
16 | QDQLVESRGGLVQAGGSLRLSCAASGSIFIENTMGWYRQAPGKERELVAAISGSVGRTFYADSVKGRFTISRDNAKNTVYLQMNSLKPEDTAVYYCAAVRRTSPGWVYYWGQGTRVTVSS | high polyreactivity
17 | QVQLVESGGGLVQAGGSLRLSCAASGSTFYIYAMVWYRQAPGKERELVAAITGTGGSTYYADSVKGRFTISRDNAKNSVYLQMNSLKPEDTAVYYCAVGFGYYYKYGYWGQGTQVTVSS | low polyreactivity
18 | QVQLVESGGGLVQAGGSLRLSCAASGRTFLGYAMGWYRQAPGKERELVAAISSSGGRTYYADSVKGRFTISRDNAKNTVYLQMNSLKPEDTAVYYCNAPRIVLCGYEYWGQGTQVTVSS | high polyreactivity
19 | QVQLVESGGGLVQAGGSLRLSCAASGSTFYSNAMGWYRQAPGKERELVAGIDTSDGSTNYADSVKGRITISRDNAKNTVYLQMNSLKPEDTAVYYCNTTLRDSRQYVDRAPYTRYDYWGQGTQVTVSS | low polyreactivity
20 | QVQLVESGGGLVQAGGSLRLSCAASGRTFRYYSMGWYRQAPGKERELVATITGSGGSTYYADSVKGRFTISRDNAKNTVYLQMNSLKPEDTAVYYCNARKVRYPYRWYDYWGQGTQVTVSS | high polyreactivity
21 | QVQLVESGGGLVQAGGSLRLSCAASGITFYSYTMGWYRQAPGKERELVAAISDNGGRTFYADSVKGRFTISRDNAKNTVYLQMNSLKPEDTAVDYCAADYSYYTSFRYDYWGQGTQVTVSS | low polyreactivity
22 | QVQLVESGGGLVQAGGSLRLSCAASGRTFFRYAMGWYRQAPGKERELVAVITRGGSTYYADSVKGRFTISRDNAKNTVYLQMNSLKPEDTAVYYCNADGRVQRKYDYWGQGTQVTVSS | high polyreactivity

Row | Sequence | polyreactivity (PSR sort gate)
23 | QVQLVESGGGLVQAGGSLRLSCDASGSTFTGYAMGWYRQAPGKERELVAAISRSGGSTSYADSVKGRFTISRDNAKNTVYLQMNSLKPEDTAGYYCAAQVQGTTRAKQRGGIGELDYWGQGTQVTVSS | low polyreactivity
24 | QVQLVESGGGLVQAGGSLRLSCAASGRTFQLYAMGWYRQAPGKERELVAAITSGGNTYYADSVKGRFTISRDNAKNTVYLQMNSLKPVDTAVYYCFLYYSRSMGYWGQGTQVTVSS | high polyreactivity
25 | QVHLVESGGGLVQAGGSLRLSCAASGSILARYAMGWYRQAPRKERELVASITTSGDSTYYADSVKGRFTISRDNAKNTVSLQMNSLIPEDTAVYYCARRRWGWGYQHFPYYYWGQGTQVTVSS | high polyreactivity
26 | QVQLVEAGGGLVQAGGSLRLSCAASGGIFSTYTMRWYRQAPGKERELVAAITTGNSTYYADSVKVRFTISRDNAKNTVYLQMNSLKPEDSAVYYCAAFADSRDYYRRLIHDGYDYWGQGTQVTVSS | low polyreactivity
27 | QVQLVESGGGLVQAGGSLRLSCAASGSTFAVYAMGWYRQAPGKERELVATITGSGGSTYYADSVKGRFTISRDNAKNTVYLEMNSLKPEDTAVYYCAAEVVAWSLYEDFKTYDYWGQGTQVTVSS | low polyreactivity
28 | QVQLVESGGGLVQAGGSLRLSCAASGSTFSKYAMGWYRQAPVKERELVAGIRGRGGSAYYADSVKGRFTISRDNAKNTVYLQMNSLKPEDTAVYYCAKEARLWGQGTQVTVSS | low polyreactivity
29 | QVQLVESGGGLVQAGGSLRLSCASSGRTFLVNAMGSYRPAPGKERELVAAISQSGGSTYYADSVKGRFTISRDNAKNTVYLQMNCLKPVDTEVYYCAAELINDYYWGQGTQVSVSS | low polyreactivity
30 | QVQLVESGGGLVQAGGSLRLSFAASGFTFRYYVMGWYRQAPGKERELVASISRGGSTTNYADSVKGRFTISRDNAKNTVFLQMNSLKPEDTAVYDCNVVITPGYSYDISRGEGYWGQGTQVTVSS | high polyreactivity
31 | QVQLVESGGGLVQAGGSLRLSCAASGRTFLYYAMGWYRQAPGKERELVAGITSGGSTNYADSVKGRFTISRDNAKNTVYLQMNSLKPEDTAVYYCAVDQGYSRTADVNYDYWGQGTQVTVSS | low polyreactivity
32 | QVQLVESGGGLVQAGGSLRLSCAASGRIFDYYYMGWYRQAPGKERELVAAISNGGSTYYADSVKGRFTISRDNAKNTVYLQMNSLKPEDTAVYYGAAVISFSGYDYYYWGQGTQVTVSS | high polyreactivity
33 | QVQLVESGGGLVQAGGSLRLSCAASGSTFRYNAMGWYRQAPGKERELVAAISKSGGSTYYADSVKGRFTISRDNAKNTVYLQMNSLKPEDTAVYYCATSYPYRIYRSSYDYWGQGTQVTVSS | high polyreactivity
34 | QVQLVESGGGLVQAGGSLRLSCAASGLIFYDNMVWYRQGPGTETELVAAISSSGGSTSYADSVKGRFTISRDNAKNTVYLQMNILKPEDTAVYYCAADSYPAYLGFVCFDYWGQGTEVTVSS | low polyreactivity
35 | QVQLVESGGGLVQAGGRLRLSCAASGSTLSANAMGWYSPAPGKERELVAAISRRSGGTYYADSVKGRFTISRDNAKNSVYLQMNSLKPEDTAVYYCIKVLKDPHTWGWVDYDYCGQGTQVTVSS | high polyreactivity
36 | QVQLVESGGGLVQAGGSLRLICAASGSILSINGMGWYRQAPGKERELVATIDGSDGSTFYADSVKGRFTISRDNAKNTVYLQMNSLKPEDTAVYYCAAENFWQTKEYDYWGQGTQVTVSS | low polyreactivity
37 | QVQLVESGGGLVQAGGSLRLSCAASGIIINTYLMGWYRQAPGKERELVAAISRRGGSTYYADSVKGRFTISRDNAKITVYLQMNSLKPEDTAFYYCAADVLYQQAGTYYWGQGTQVNVSS | high polyreactivity
38 | QVQLVESGGGLVQAGGSLRLSCAASGSTLGYNVMAWYRQAPGKERELVAAISGEGSTNYADSVKGRFTISRDNAKNTVYLQMNSLKPEDTAVYYCAADSRDDYEYWRQGTQVTVSS | low polyreactivity
39 | QIQLVESGGWLVQAGGSLRLRCAASGNTIHWNVMVWYRQPPGKERELVATITFSGSSTYYADSVKGRFTISRDNAKNTVYLQMNSLQPEDTAVYFCNATRYRLRPSGVRYKYNYWGQGTQGTVSS | low polyreactivity
40 | QVQLVESGGGLVQAGGSLRLSCAASGRTIVVYGMGWYRQAPGKERELVATINYGGNTYYADSVKGRFTISRDNAKNTVYLQLNSLKPEDTAVYYCATRSYARYYTYDYWGQGTQVTVSS | low polyreactivity
41 | QVQLVESGGGLVQAGGSLRLSCAASGSIFSRYTMGWYRQAPGKERELVARINSSGTSTYYADSVKGRFTISRDNAKITVYLQMNSLKPEDTAVYYCARTSRHVRYDYWGQGTQVTVSS | low polyreactivity
42 | QDQLVESGGGLVQAGGSLRLSCAASGSIFRKYVMGWYRQAPGKERELVAAISGSGGRTYYADSVKGRFTISRDNAKNTVYLQMNSLKPEDTAVYYSNAYPHAYTGSTREGDYWGQGTQVTVSS | high polyreactivity
43 | QLQLVESGGGLVQAGGSLRLSCAASGRIFGKNDMRSYRQAPGKERELVAAITTSGGSTDYADSVKGRFTISRDKAKNTVYLQMNSLKPEDTAVYYCNAAFQNKAYIRKYKYDYWGQGTQVTVSS | low polyreactivity
